Four molecules from US20050214813A1 can be followed below.

This test concerns the target Aβ1-28 consisting of 28 amino acid residues from the N-terminus of Aβ (UniProt P05067). In words: cell-based or functional assay.

Aβ1-28 consisting of 28 amino acid residues from the N-terminus of Aβ, sequence (P05067 672-699): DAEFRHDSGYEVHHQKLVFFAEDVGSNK

B1: PSEC0242 (supernatant containing the product expressed from the clone of SEQ ID NO. 7) (protein)
chain: MMGLGNGRRSMKSPPLVLAALVACIIVLGFNYWIASSRSVDLQTRIMELEGRVRRAAAERGAVELKKNEFQGELEKQREQLDKIQSSHNFQLESVNKLYQDEKAVLVNNITTGERLIRVLQDQLKTLQRNYGRLQQDVLQFQKNQTNLERKFSYDLSQCINQMKEVKEQCEERIEEVTKKGNEAVASRDLSENNDQRQQLQALSEPQPRLQAAGLPHTEVPQGKGNVLGNSKSQTPAPSSEVVLDSKRQVEKEETNEIQVVNEEPQRDRLPQEPGREQVVEDRPVGGRGFGGAGELGQTPQVQAALSVSQENPEMEGPERDQLVIPDGQEEEQEAAGEGRNQQKLRGEDDYNMDENEAESETDKQAALAGNDRNIDVFNVEDQKRDTINLLDQREKRNHTL
The molecule B1 showed a Fluorescence Intensity (thioflavin-T, Aβ1-28 aggregation after 24 hours, relative to the Aβ40-1 control taken as 100%) of 16%.

B2: PSEC0220 (supernatant containing the product expressed from the clone of SEQ ID NO. 5) (protein)
chain: LWWAVGSPLVMDPTSICRKARRLAGRQAELCQAEPEVVAELARGARLGVRECQFQFRFRRWNCSSHSKAFGRILQQDIRETAFVFAITAAGASHAVTQACSMGELLQCGCQAPRWRAPPRPSGLPGTPGPPGPAGSPEGSAAWEWGGCGDDVDFGDEKSRLFMDARHKRGRGDIRALVQLHNNEAGRLAVRSHTRTECKCHGLSGSCALRTCWQKLPPFREVGARLLERFHGASRVMGTNDGKALLPAVRTLKPPGRADLLYAADSPDFCAPNRRTGSPGTRGRACNSSAPDLSGCDLLCCGRGHRQESVQLEENCLCRFHWCCVVQCHRCRVRKELSLCL
As to B2, the Fluorescence Intensity (thioflavin-T, Aβ1-28 aggregation after 24 hours, relative to the Aβ40-1 control taken as 100%) was found to be 250%.

B3: PSEC0129 (supernatant containing the product expressed from the clone of SEQ ID NO: 3) (protein)
chain: AFHASAVGLRSSDEQKQQPPNSFSQQHSETQGAEKPDPESSHSPPRYTDQGGEEEEDYESEEQLQHRILTAALEFVPAHGWTAEAIAEGAQVCIGEGGAT
The molecule B3 gave a Fluorescence Intensity (thioflavin-T, Aβ1-28 aggregation after 24 hours, relative to the Aβ40-1 control taken as 100%) of 24%.

B4: PSEC0256 (supernatant containing the product expressed from the clone of SEQ ID NO. 9) (protein)
chain: MAGHSMVLVEILDVNDNVPEVMVTSLSLPVQEDAQVGTVIALISVSDRDSGANGQVICSLTPHVPFKLVSTYKNYYSLVLDSALDRESVSAYELVVTARDGGSPSLWATARVSVEVADVNDNAPAFAQPEYTVFVKENNPPGCHIFTVSAWDADAQKNALVSYSLVERRVGEHALSSYVSVHAESGKVYALQPLDHEELELLQFQVSARDAGVPPLGSNVTLQVFVLDENDNAPALLATPAGSAGGAVSELVPRSVGAGHVVAKVRAVDADSGYNAWLSYELQPAAVGAHIPFHVGLYTGEISTTRILDEADAPRHRLLVLVKDHGEPALTSTATVLVSLVENGQAPKTSSRASVGAVDPEAALVDINVYLIIAICAVSSLLVLTLLLYTALRCSAPPTVSRCAPGKPTLVCSSAVGSWSYSQQRRQRVCSAESPPKTDLMAFSPSLQLSREDCLNPPSEPRQPNPDWRYSASLRAGMHSSVHLEEAGILRAGPGGPDQQWPTVSSATPEPEAGEVSPPVGAGVNSNSWTFKYGPGNPKQSGPGELPDKFIIPGSPAIISIRQEPTNSQIDKSDFITFGKKEETKKKKKKKKGNKTQEKKEKGNSTTDNSDQ
For the molecule B4, the Fluorescence Intensity (thioflavin-T, Aβ1-28 aggregation after 24 hours, relative to the Aβ40-1 control taken as 100%) was determined as 460%.
